This is an account of results in article PMC4348373, “YY1 suppresses FEN1 over-expression and drug resistance in breast cancer”.

The target of series [1] is T1, YY1 (UniProt P25490 1-414). Nature of the series: EMSA; complex diminished by anti-YY1, not by IgG (Fig 2C); Pull-down: 25 mM Tris, 150 mM NaCl, pH 7.2, room temperature, 30 min; EMSA: LightShift chemiluminescent kit, 5% native PAGE, buffer not stated. As to conditions: protein: recombinant; tags: N-terminal 3xFlag; label: 5'-biotin. For orientation: In EMSA bound probe runs differently from free probe, usually more slowly.
T1 sequence (P25490 whole entry): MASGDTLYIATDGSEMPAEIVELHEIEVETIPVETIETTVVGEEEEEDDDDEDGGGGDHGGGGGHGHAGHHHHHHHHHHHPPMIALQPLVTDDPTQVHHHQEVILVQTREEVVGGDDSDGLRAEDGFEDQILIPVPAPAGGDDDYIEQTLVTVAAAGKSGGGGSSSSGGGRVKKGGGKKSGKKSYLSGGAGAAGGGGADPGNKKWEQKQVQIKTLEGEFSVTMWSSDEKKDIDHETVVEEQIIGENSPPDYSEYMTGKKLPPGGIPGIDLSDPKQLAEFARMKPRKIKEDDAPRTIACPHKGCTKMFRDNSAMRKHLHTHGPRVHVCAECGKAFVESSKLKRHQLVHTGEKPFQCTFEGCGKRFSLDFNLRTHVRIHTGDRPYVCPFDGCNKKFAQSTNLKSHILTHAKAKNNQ

Series [2] has as its target T1, YY1. Kind of series: EMSA; Pull-down: 25 mM Tris, 150 mM NaCl, pH 7.2, room temperature, 30 min; EMSA: LightShift chemiluminescent kit, 5% native PAGE, buffer not stated. The conditions noted are these: protein: recombinant; tags: N-terminal 3xFlag; label: 5'-biotin.

B1: WT FEN1 (dsDNA)
DNA 1: AACGCTCTCACCATTTTGCCCCGCGAAG
DNA 2: CTTCGCGGGGCAAAATGGTGAGAGCGTT
On to B1, for which the binding result in series [1] is reported as “binds”.

B2: MUT FEN1 (dsDNA)
DNA 1: AACGCTCTCAGCAATTTGCCCCGCGAAG
DNA 2: CTTCGCGGGGCAAATTGCTGAGAGCGTT
As to B2, the binding result in series [2] is recorded as “no binding”.
